# T1: 金黄色葡萄球菌肠毒素B (Staphylococcus aureus, UniProt P01552 28-266)
# T1 construct: also called SEB
# T1 sequence: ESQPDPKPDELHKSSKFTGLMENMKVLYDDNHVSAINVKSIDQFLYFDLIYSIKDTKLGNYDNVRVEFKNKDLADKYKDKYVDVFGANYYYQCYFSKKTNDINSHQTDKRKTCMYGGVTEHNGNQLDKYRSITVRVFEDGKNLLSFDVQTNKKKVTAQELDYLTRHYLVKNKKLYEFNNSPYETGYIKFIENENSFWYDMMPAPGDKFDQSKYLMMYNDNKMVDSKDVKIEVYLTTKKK
# B1: 噬菌体克隆B7 (VHH)
# VHH: ESGGGLVQAGGSLRLSCKVSGFNFREHALAWFRQAPGKEREGVSCIRGSGDYTTYADSVKGRFTISRDNAQNTLYLQMNSLRPEDTAMYYCAAARYARYYPNNCLDSAEYGYWGQGTLVTVS
# notes: also called B7克隆
# Biological target: T1, 金黄色葡萄球菌肠毒素B
# Experiment: phage ELISA on coated SEB, HRP anti-M13 detection
binder,measurement,value
B1,binding result,binds

# Reference: CN110526968A (UNIV NORTHWEST A&F, dated 2019)
